Measured values reported in patent US20230357367A1 (GENERATE BIOMEDICINES, published 2023).
Where two headings read alike, the source gives them in different places.

What was measured:
[1] = target: T1, SARS-CoV-1 Spike on pseudovirus (SARS-CoV-1, UniProt P59594 14-1255); assay: cell-based or functional assay
[2] = target: T2, WIV1 Spike on pseudovirus (WIV1 (bat SARS-like coronavirus)); assay: cell-based or functional assay
[3] = target: T1, SARS-CoV-1 Spike on pseudovirus; assay: cell-based or functional assay; remark: listed apart in the source
[4] = target: T2, WIV1 Spike on pseudovirus; assay: cell-based or functional assay; remark: listed apart in the source
[5] = target: T1, SARS-CoV-1 Spike on pseudovirus; assay: cell-based or functional assay; remark: listed apart in the source
[6] = target: T2, WIV1 Spike on pseudovirus; assay: cell-based or functional assay; remark: listed apart in the source
[7] = target: spike of SARS-CoV-2 Eng20 (WT) (SARS-CoV-2, UniProt P0DTC2 14-1273); assay: cell-based or functional assay
[8] = target: T3, MERS spike trimer (recombinant, negative control) (MERS, UniProt K9N5Q8 18-1296); assay: SPR, Fab over anti-His-captured trimer, 25 C
T3 sequence: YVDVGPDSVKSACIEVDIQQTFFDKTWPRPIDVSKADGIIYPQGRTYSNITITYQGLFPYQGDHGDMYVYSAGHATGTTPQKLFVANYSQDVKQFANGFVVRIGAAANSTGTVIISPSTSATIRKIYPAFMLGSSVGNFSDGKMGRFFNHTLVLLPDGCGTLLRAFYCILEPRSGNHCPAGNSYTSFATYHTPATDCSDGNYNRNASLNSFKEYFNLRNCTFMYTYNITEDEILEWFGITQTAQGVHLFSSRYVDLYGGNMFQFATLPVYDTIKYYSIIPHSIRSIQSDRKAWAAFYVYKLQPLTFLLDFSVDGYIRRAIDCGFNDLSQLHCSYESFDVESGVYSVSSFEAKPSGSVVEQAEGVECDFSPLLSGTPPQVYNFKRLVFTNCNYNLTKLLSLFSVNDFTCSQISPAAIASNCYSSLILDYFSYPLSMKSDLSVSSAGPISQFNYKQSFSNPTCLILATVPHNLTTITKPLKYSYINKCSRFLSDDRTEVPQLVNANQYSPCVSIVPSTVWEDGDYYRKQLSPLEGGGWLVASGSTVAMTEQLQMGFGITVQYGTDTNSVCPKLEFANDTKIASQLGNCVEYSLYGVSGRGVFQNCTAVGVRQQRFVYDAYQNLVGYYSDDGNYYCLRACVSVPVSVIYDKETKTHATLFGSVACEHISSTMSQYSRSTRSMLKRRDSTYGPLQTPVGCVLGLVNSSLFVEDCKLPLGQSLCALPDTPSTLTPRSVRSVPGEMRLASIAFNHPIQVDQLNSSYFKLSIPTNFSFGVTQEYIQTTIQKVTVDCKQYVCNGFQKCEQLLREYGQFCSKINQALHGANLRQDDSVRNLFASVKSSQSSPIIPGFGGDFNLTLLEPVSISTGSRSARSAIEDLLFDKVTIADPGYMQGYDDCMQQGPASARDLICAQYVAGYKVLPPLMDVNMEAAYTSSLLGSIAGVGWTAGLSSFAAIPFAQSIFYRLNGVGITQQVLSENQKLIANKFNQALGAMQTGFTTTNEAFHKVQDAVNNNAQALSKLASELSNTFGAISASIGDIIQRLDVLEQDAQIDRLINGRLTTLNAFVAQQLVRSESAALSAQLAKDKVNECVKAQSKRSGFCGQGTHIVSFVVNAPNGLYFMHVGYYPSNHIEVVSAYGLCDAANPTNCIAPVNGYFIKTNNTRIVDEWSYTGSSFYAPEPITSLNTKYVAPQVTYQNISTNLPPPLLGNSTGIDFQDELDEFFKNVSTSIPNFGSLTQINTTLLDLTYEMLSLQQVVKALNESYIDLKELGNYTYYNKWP

B1: Reference Antibody (antibody, V domains shown)
VH: EVQLVESGAEVKKPGESLKISCKGSGYTFTRYWIGWVRQMPGKGLEWMGIIYPGDSDTRYSPSFQGHVTISADKSISTAYLQWNSLKASDTAMYYCARLPQYCSNGVCQRWFDPWGQGTLVTVSS
VL: EIVLTQSPSSVSASVGDRVTITCRASQGISSWLAWYQQKPGKAPKLLIYAASSLQSGVPSRFSGSGSGTDFTLTISSLQPEDFATYYCQQGNSFPYTFGQGTNLEIK
- IC50, pseudovirus neutralization [1]: 0.244 µg/mL
- IC50, pseudovirus neutralization [2]: 0.473 µg/mL
- IC50, pseudovirus neutralization [3]: 0.0352 µg/mL
- IC50, pseudovirus neutralization [4]: 0.0196 µg/mL
- % neutralization at 4.5 µg/ml, pseudovirus [5]: 94.3%
- % neutralization at 4.5 µg/ml, pseudovirus [6]: 97.6%

B2: bebtelovimab (antibody, V domains shown)
VH: QITLKESGPTLVKPTQTLTLTCTFSGFSLSISGVGVGWLRQPPGKALEWLALIYWDDDKRYSPSLKSRLTISKDTSKNQVVLKMTNIDPVDTATYYCAHHSISTIFDHWGQGTLVTVSS
VL: QSALTQPASVSGSPGQSITISCTATSSDVGDYNYVSWYQQHPGKAPKLMIFEVSDRPSGISNRFSGSKSGNTASLTISGLQAEDEADYYCSSYTTSSAVFGGGTKLTVLG
- EC50, live virus neutralization [7]: 0.0016 µg/mL

B3: AB-1 Fab (Fab, V domains shown)
VH: EVQLVESGAEVKKPGESLKISCKGSGYTFTRYWIGWVRQMPGKGLEWMGIIYPGDSDVRYSPSFQGHVTISADKSISTAYLQWNSLKASDTAMYYCARLPQYCSKGVCYRWFDPWGQGTLVTVSS
VL: EIVLTQSPSSVSASVGDRVTITCRASQGISSWLAWYQQKPGKAPKLLIYAASSLQSGVPSRFSGSGSGTDFTLTISSLQPEDFATYYCQQGHSFPYTFGQGTNLEIK
- binding result [8]: no binding (tested: 600 nM highest Fab concentration)

B4: Reference Antibody Fab (Fab, V domains shown)
VH: EVQLVESGAEVKKPGESLKISCKGSGYTFTRYWIGWVRQMPGKGLEWMGIIYPGDSDTRYSPSFQGHVTISADKSISTAYLQWNSLKASDTAMYYCARLPQYCSNGVCQRWFDPWGQGTLVTVSS
VL: EIVLTQSPSSVSASVGDRVTITCRASQGISSWLAWYQQKPGKAPKLLIYAASSLQSGVPSRFSGSGSGTDFTLTISSLQPEDFATYYCQQGNSFPYTFGQGTNLEIK
- binding result [8]: no binding (tested: 600 nM highest Fab concentration)
